In the assay the target is Cy3-labelled, prenylated Cdc42, wild type, GDP-bound. Nature of the assay: membrane extraction (wash-off) assay on supported lipid bilayers, TIRF; as above, GDI titrated between 0 and 20 µM; Koff of the GTPase from the membrane plotted against GDI concentration and fitted with a hyperbolic function (Kd, Vmax); apparent affinities.

A value given as a limit tells only on which side of the number the result lay.

For “Xenopus laevis RhoGDI E158/9Q (natural protein)”, the fold reduction of the extraction of Cdc42:GDP against WT GDI was less than 2 fold.

Source of the values: PMC6910828.
